Test results from paper PMC11775670.

The substances below were run against PksD (Bacillus subtilis str. 168) (UniProt O34877). Conditions: scale: % relative to the acetyl-PksJ ACP4 domain.
Sequence of UniProt O34877 (O34877 whole entry, the tested form may be a part): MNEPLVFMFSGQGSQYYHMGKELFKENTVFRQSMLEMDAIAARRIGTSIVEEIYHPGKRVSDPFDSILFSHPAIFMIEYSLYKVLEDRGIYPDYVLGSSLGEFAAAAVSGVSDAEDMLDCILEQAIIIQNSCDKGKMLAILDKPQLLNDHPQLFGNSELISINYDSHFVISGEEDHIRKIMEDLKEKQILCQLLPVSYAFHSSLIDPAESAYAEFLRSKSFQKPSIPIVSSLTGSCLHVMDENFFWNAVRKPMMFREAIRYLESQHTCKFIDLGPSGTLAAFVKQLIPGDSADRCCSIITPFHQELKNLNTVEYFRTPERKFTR

Row | acetyl group hydrolysis by PksD relative to the acetyl-PksJ ACP4 domain, intact protein-MS | Substance
1 | 7 | acetyl-loaded IcoA PCP2 domain (domain or fragment)
2 | 41 | acetyl-loaded GbnD5 ACP12 domain (domain or fragment)
3 | 12 | acetyl-loaded BlmVIII ACP7 domain (domain or fragment)
